Molecular target: TrkA (rat (endogenous in PC12 rat …, UniProt P35739 33-799))
Assay: cell-based or functional assay

Sequence of TrkA (rat (P35739 33-799): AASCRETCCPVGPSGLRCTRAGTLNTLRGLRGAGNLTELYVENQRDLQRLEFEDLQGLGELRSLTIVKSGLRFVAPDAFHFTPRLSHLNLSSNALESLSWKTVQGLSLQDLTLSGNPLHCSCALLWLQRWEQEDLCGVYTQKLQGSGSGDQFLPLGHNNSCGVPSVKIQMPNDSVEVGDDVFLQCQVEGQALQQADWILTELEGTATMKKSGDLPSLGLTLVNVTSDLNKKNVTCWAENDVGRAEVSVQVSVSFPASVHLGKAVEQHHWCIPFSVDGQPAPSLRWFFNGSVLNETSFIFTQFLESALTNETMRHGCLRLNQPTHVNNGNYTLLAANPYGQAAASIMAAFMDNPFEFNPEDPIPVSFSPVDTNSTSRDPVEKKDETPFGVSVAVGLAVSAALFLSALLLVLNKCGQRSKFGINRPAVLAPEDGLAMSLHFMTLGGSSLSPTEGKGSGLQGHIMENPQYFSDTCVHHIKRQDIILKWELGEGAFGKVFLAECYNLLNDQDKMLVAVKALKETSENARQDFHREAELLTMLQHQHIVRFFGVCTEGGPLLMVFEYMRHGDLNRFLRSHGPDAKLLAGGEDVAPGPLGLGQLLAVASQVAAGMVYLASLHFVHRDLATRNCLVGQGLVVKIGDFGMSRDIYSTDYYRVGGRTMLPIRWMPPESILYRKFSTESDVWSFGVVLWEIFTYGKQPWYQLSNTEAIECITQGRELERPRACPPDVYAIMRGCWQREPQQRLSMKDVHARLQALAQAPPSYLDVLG

B1: SPKR4NL1-2 (other)
chain: MGHHHHHHHHHHSSGHIEGRHMSPKRSPKRSPKRSPKRGGTYLSEDELKAAEAAFKRHNPTGSCSVSVWVGDKTTATDIKGKEVMVLGEVNINNSVFKQYFFETKCRDPNPVDSG
modifications: disulfide bridge intended between the added Cys and the Cys corresponding to C58 of NGF
  increase in gene expression in PC12 cells, SPKR4NL1-2 group against (SPKR)4 group (luciferase): 1400 fold
